Test results as given in the supplement of paper PMC10567573.
± gives the standard deviation.

Assay: protein stability index of a GFP-peptide fusion (GPS, HEK-293T) (PSI 1-6); higher = more stable
[1] = treatment: DMSO, c terminus: a fixed tail appended
[2] = treatment: MLN4924 1 uM, 8 h, c terminus: a fixed tail appended
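Note: 24-mer peptide tiles fused after GFP, lentivirally expressed, FACS-sorted into six equal bins by GFP/DsRed ratio, decoded by Illumina sequencing, PSI is the read-weighted mean bin number.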

LEVNRLMGKLLQQPNTYADFEFLA [PKD2L1]
protein stability index [1]: 2.17 ± 0.37
protein stability index [2]: 2.48 ± 0.14

LFFPEGTCSNKKALLKFKPGAFIA [LPCAT4]
protein stability index [1]: 1.86 ± 0.38
protein stability index [2]: 2.41 ± 0.25

LFGHPGLDMELGPSQGQETNEVCE [ADAMTSL2]
protein stability index [2]: 5.29 ± 0.35

LFQRKLSWIKMTKLEYEEIALDLT [FAN1]
protein stability index [1]: 3.02 ± 0.39
protein stability index [2]: 2.45 ± 0.24

LFSDDYGGKNCKKPAEYGYVSLGR [CEBPB]
protein stability index [1]: 3.02 ± 0.31
protein stability index [2]: 3.2 ± 0.33

LGLRSLIPAVLTVSMLGYPFILPD [MYORG]
protein stability index [1]: 3.1 ± 0.55
protein stability index [2]: 3.07 ± 0.36

LGQNDTGFSCDGTANTFRVMFKEP [BTBD1]
protein stability index [1]: 3.36 ± 0.2
protein stability index [2]: 3.29 ± 0.31

LGVIQRDLAKTGCVDLTITNLLEG [AUP1]
protein stability index [1]: 2.52 ± 0.18
protein stability index [2]: 2.61 ± 0.46

LGYFIRSWRTLAILVNLQGTVVFL [SLC22A15]
protein stability index [1]: 2.71 ± 0.55
protein stability index [2]: 2.62 ± 0.75

LGYLLDKETLRLHPDIFLPSEICD [ZER1]
protein stability index [1]: 2.4 ± 0.21
protein stability index [2]: 2.46 ± 0.17

LHIFQLNEDGPSSENLEEETENII [TRIP13]
protein stability index [1]: 3.96 ± 0.58
protein stability index [2]: 4.21 ± 0.28

LHPFFAGLTPEERSFHTSRNPSR [CLK3]
protein stability index (treatment: DMSO, c terminus: native): 2.72 ± 0.38
protein stability index (treatment: MLN4924 1 uM, 8 h, c terminus: native): 2.73 ± 0.52

LHPRGKNNFSPLHLAVDKNTTCVG [FEM1C]
protein stability index [1]: 3.39 ± 0.13
protein stability index [2]: 3.43 ± 0.12

LHSHRHLYPEGIGARQQQVTTYLH [POMT2]
protein stability index [1]: 2.76 ± 0.21
protein stability index [2]: 2.82 ± 0.2

LIPLANTGIVNHTHSRMGSIMSTG [CARM1]
protein stability index [1]: 2.59 ± 0.12
protein stability index [2]: 2.47 ± 0.14

LKIELETYKLKCKALQEENRDLRK [CCDC6]
protein stability index [1]: 4.25 ± 0.29
protein stability index [2]: 4.63 ± 0.23

LKLTVVEDVTVGRRQAVAWLVAMH [ZFYVE21]
protein stability index [1]: 3.15 ± 0.56
protein stability index [2]: 2.91 ± 0.57

LKNEVERLKKQLRAAQLQHSEKMA [CCDC6]
protein stability index [1]: 2.83 ± 0.32
protein stability index [2]: 3.14 ± 0.25

LLARLRELEQQIWKERDEYITKVS [TRIM15]
protein stability index [1]: 1.98 ± 0.36
protein stability index [2]: 1.96 ± 0.56

LLCNAITGITLLRVKFKSQQHRQG [PTGFR]
protein stability index [1]: 2.38 ± 0.46
protein stability index [2]: 2.21 ± 0.77

LLECYIQYHHSKIRNRGYNLIYRS [TMEM192]
protein stability index [1]: 2.71 ± 0.5
protein stability index [2]: 2.73 ± 0.6

LLGLRTFVAFAAKLWSFFIYLLRR [CTDNEP1]
protein stability index [1]: 4.28 ± 0.38
protein stability index [2]: 4.16 ± 0.3

LLGSSTACIVVLDRTSHRLHTANL [PPTC7]
protein stability index [1]: 2.66 ± 0.39
protein stability index [2]: 2.46 ± 0.32

LLKDKVRERIQILKTSEVTQHLPR [PTPN9]
protein stability index [1]: 2.7 ± 0.32
protein stability index [2]: 2.99 ± 0.075

LLLLLLASLLPSARLASPLPREEE [ADAMTS4]
protein stability index [1]: 2.56 ± 0.07
protein stability index [2]: 3.08 ± 0.55

LLLPGLNQHGIILKYIGMAKREIN [ARL6IP1]
protein stability index [1]: 2.42 ± 0.68
protein stability index [2]: 2.38 ± 0.97

LLMVRASRRSGKTSAVLKAGRQSV [C6orf223]
protein stability index [1]: 2.63 ± 0.17
protein stability index [2]: 2.85 ± 0.19

LLNTDLHGHNIGKKMSCQQFIANL [PSD2]
protein stability index [1]: 2.24 ± 0.29
protein stability index [2]: 2.46 ± 0.13

LLQQNKSIQSLTLEWNSLGTWDDA [LRRC45]
protein stability index [1]: 2.65 ± 0.094
protein stability index [2]: 2.64 ± 0.42

LLTITKAHSNAISNCCFTFSGHFL [WDR88]
protein stability index [1]: 3.12 ± 1.1
protein stability index [2]: 2.59 ± 0.48

LLYLLHILLLDGAAWLTLWVFGTS [FADS1]
protein stability index [1]: 3.38 ± 0.24
protein stability index [2]: 2.49 ± 0.25

LLYSEVTASSLVKINLQGDIVDRG [ADD1]
protein stability index [1]: 2.85 ± 0.52
protein stability index [2]: 2.42 ± 0.42

LMELDMAMEPDRKAAVSHWQQQSY [CTNNB1]
protein stability index [1]: 3.11 ± 0.19
protein stability index [2]: 3.33 ± 0.37

LMGEIAKATFMYEQFPELMNMLWS [CLINT1]
protein stability index [1]: 2.61 ± 0.62
protein stability index [2]: 2.33 ± 0.32

LMHIAHIAELLEVFDLRMMVANIL [RHOBTB2]
protein stability index [1]: 2.48 ± 0.4
protein stability index [2]: 2.31 ± 0.32

LMKKIGQCPMRVQKEVAGFVLNRL [CRYL1]
protein stability index [1]: 2.34 ± 0.38
protein stability index [2]: 2.53 ± 0.24

LMLELKSLQEEPVEGFRITLVDES [UBE2R2]
protein stability index [1]: 2.6 ± 0.39
protein stability index [2]: 2.77 ± 0.17

LMNDVIDTSGFPDLSDNRNEDPLV [FBXO33]
protein stability index [1]: 4.85 ± 0.17
protein stability index [2]: 4.9 ± 0.18

LNDISRKSEGLSGRVLRKLPFLAH [TRIP13]
protein stability index [1]: 2.11 ± 0.27
protein stability index [2]: 2.57 ± 0.55

LPEWISCLIQKAQWTVGKLNCPFC [RNF180]
protein stability index [1]: 2.22 ± 0.19
protein stability index [2]: 2.31 ± 0.087

LPLAEREHVSRALCIHTGRELRCK [TRIB1]
protein stability index [1]: 3.99 ± 0.32
protein stability index [2]: 3.93 ± 0.2

LPLMDLCRRSIRSALGRQRLQDIS [SPSB4]
protein stability index [1]: 2.62 ± 0.12
protein stability index [2]: 2.53 ± 0.34

LPMWSNQTWNNSTWSNQTQNIQSW [NANOGP8]
protein stability index [1]: 2.45 ± 0.38
protein stability index [2]: 2.56 ± 0.27

LPPDALIIEYRGKFMLREQFEANG [KMT2E]
protein stability index [1]: 2.57 ± 0.31
protein stability index [2]: 2.63 ± 0.18

LPPQYVDDVISRIDRMFPEMSIHL [MED27]
protein stability index [1]: 2.19 ± 0.087
protein stability index [2]: 2.29 ± 0.29

LPRRRGLRKKKTTKLRLERVKFRR [NEUROD6]
protein stability index [1]: 3.85 ± 0.27
protein stability index [2]: 3.97 ± 0.29

LPSLSCRTSCSSRPCVPPSCHGYT [KRT33B]
protein stability index [1]: 2.1 ± 0.11
protein stability index [2]: 2.09 ± 0.36

LPSSGEGLAFFTFPNIASATKFKQ [HMOX1]
protein stability index [1]: 2.75 ± 0.43
protein stability index [2]: 2.87 ± 0.18

LPSVTDIRRPRLYLLQWLKSDKAL [PLK2]
protein stability index [1]: 2.33 ± 0.24
protein stability index [2]: 2.36 ± 0.49

LQKDLETRPTQHELRLYKQQVKKL [CEP70]
protein stability index [1]: 4.19 ± 0.2
protein stability index [2]: 4.42 ± 0.37

LQKKLDNLQCLYCEKTFRDKNTLK [ZNF277]
protein stability index [1]: 2.64 ± 0.25
protein stability index [2]: 2.86 ± 0.3

LRDTYKLWVPQPPPRTIKRTRRRL [PWWP2B]
protein stability index [1]: 3.46 ± 0.19
protein stability index [2]: 3.64 ± 0.21

LREIRMLKQLKHPNLVNLIEVFRR [CDKL4]
protein stability index [1]: 2.31 ± 0.3
protein stability index [2]: 2.13 ± 0.67

LRFSGVNDTDFRVYLLGNPVVWWL [POMT2]
protein stability index [1]: 2.85 ± 0.43
protein stability index [2]: 2.96 ± 0.6

LRGKSIKRAPGEETEKEEEEEDRE [NEUROD6]
protein stability index [1]: 5.66 ± 0.45
protein stability index [2]: 5.67 ± 0.3

LRKKKTTKLRLERVKFRRQEANAR [NEUROD6]
protein stability index [1]: 3.59 ± 0.34
protein stability index [2]: 3.59 ± 0.27

LRPQRTKQYVLLSILLCLLASGLV [TMEM106C]
protein stability index [1]: 3.11 ± 0.38
protein stability index [2]: 2.9 ± 0.26

LRQRESKWLDMLNNWDKWMAKKHK [TBC1D10A]
protein stability index [1]: 2.9 ± 0.24
protein stability index [2]: 3.2 ± 0.41

LSEALKEATKEVHTQAENAEFMRN [HMOX1]
protein stability index [1]: 4.92 ± 0.1
protein stability index [2]: 5.01 ± 0.48

LSELPPLEDMGQPPAEEAEQPGAL [FKBP8]
protein stability index [1]: 5.59 ± 0.18
protein stability index [2]: 5.72 ± 0.24

LSGGLGAGSCRLGSAGGLGSTLGG [KRT17]
protein stability index [1]: 2.47 ± 0.23
protein stability index [2]: 2.37 ± 0.28

LSIVLERMRYEGVVDIFQTVKMLR [PTPRD]
protein stability index [1]: 2.1 ± 0.48
protein stability index [2]: 2.42 ± 0.58

LSLLTNRGSKMFKLRQMRVEKFIY [MYOZ1]
protein stability index [1]: 2.13 ± 0.34
protein stability index [2]: 2.38 ± 0.14

LSLRQTGSPGMIYSTRYGSPKRQL [KCNAB2]
protein stability index [1]: 2.98 ± 0.51
protein stability index [2]: 3.17 ± 0.31

LSQPTTNLVAGCLQLNARSFMMGQ [NEUROD6]
protein stability index [1]: 2.31 ± 0.17
protein stability index [2]: 2.21 ± 0.26

LSSWELEAWYEDLQEVLSSDENGG [DDIT3]
protein stability index [1]: 3.19 ± 0.39
protein stability index [2]: 3.29 ± 0.34

LSVIQMVAFLEQRASALLASCSKN [FBXO34]
protein stability index [1]: 2.81 ± 0.35
protein stability index [2]: 2.71 ± 0.71

LTEIYRIVSQKQIADRAAHDESPG [RAB11B]
protein stability index [1]: 3.52 ± 0.12
protein stability index [2]: 3.52 ± 0.27

LTISAAFNIVYIYTSELYPTVIRN [SLC22A15]
protein stability index [1]: 3.19 ± 0.14
protein stability index [2]: 3.13 ± 0.33

LTRRLAHGEELRVSARSREGRGGR [HAGHL]
protein stability index [1]: 4.87 ± 0.22
protein stability index [2]: 4.99 ± 0.079

LTVRLHTQSVSECITEDGRTVAVG [PWWP2B]
protein stability index [1]: 3.2 ± 0.33
protein stability index [2]: 3.15 ± 0.044

LVENDQQLQKILSIPQSSLEPLKA [ACSBG2]
protein stability index [1]: 3.66 ± 0.34
protein stability index [2]: 3.99 ± 0.41

LVETNRREVEQWFATQTEELNKQV [KRT33B]
protein stability index [1]: 4.41 ± 0.21
protein stability index [2]: 4.49 ± 0.31

LVGDSDVGKGEILASLQDGAAESP [RAB40B]
protein stability index [1]: 5.18 ± 0.17
protein stability index [2]: 5.36 ± 0.32

LVKNLKDTLGLGKTRRKTSARDAS [NCK2]
protein stability index [1]: 3.19 ± 0.38
protein stability index [2]: 3.35 ± 0.3

LVVPNKGYSSLDQSPDEKPLVALD [FAM219A]
protein stability index [1]: 4.45 ± 0.17
protein stability index [2]: 4.42 ± 0.25

LWAGSKGKEFGYFPRDAVQIEEVF [MIA2]
protein stability index [1]: 2.66 ± 0.51
protein stability index [2]: 2.77 ± 0.46

LYNMDLSDDHIRVIVQLHKLRHLD [ZER1]
protein stability index [1]: 2.25 ± 0.38
protein stability index [2]: 2.56 ± 0.37

LYRGLAPNFMKVIPAVSISYVVYE [SLC25A25]
protein stability index [1]: 2.71 ± 0.67
protein stability index [2]: 3.25 ± 0.51

LYRTLFSVINNGHNQKVHMHMVDL [PDS5B]
protein stability index [1]: 2.73 ± 0.56
protein stability index [2]: 2.77 ± 0.77

LYTGELDENERDLMHIAHIAELLE [RHOBTB2]
protein stability index [1]: 2.69 ± 0.33
protein stability index [2]: 3.09 ± 0.34

LYWRDIKQTGIVFGSFLLLLFSLT [RTN1]
protein stability index [1]: 2.52 ± 0.22
protein stability index [2]: 2.35 ± 0.23

MAAGSEPESVEASPVVVEKSNSYP [KMT2E]
protein stability index [1]: 5.3 ± 0.11
protein stability index [2]: 5.19 ± 0.24

MAEISRIQYEMEYTEGISQRMRVP [MFF]
protein stability index [1]: 2.67 ± 0.3
protein stability index [2]: 2.79 ± 0.6

MAGRPHPYDGNSSDPENWDRKLHS [BTBD10]
protein stability index [1]: 4.63 ± 0.086
protein stability index [2]: 4.71 ± 0.088

MALPFFSLAEVRVGYQSQNISCFF [MYORG]
protein stability index [1]: 3.15 ± 1.1
protein stability index [2]: 3.11 ± 0.89

MASNERDAISWYQKKIGAYDQQIW [PHTF1]
protein stability index [1]: 2.51 ± 0.39
protein stability index [2]: 2.55 ± 0.16

MDNYADLSDTELTTLLRRYNIPHG [EMD]
protein stability index [1]: 3.19 ± 0.11
protein stability index [2]: 3.37 ± 0.15

MDSGCWLFGGEFEDSVFEERPERR [C8orf76]
protein stability index [1]: 4.06 ± 0.33
protein stability index [2]: 4.29 ± 0.27
